The values that follow come from a protein production outcome set (Wang et al. 2014).

The data set can be described thus: label from the status in PepcDB records.
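Also: failed if final PepcDB status was selected cloned or expressed and not failed if soluble or beyond.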

Turning to “MSHGGGGHAAELYPEEQIFAVGIALSLVGCYLANFLSPYGLGMLIGGLLASAACVAGANTVRKVAAYGLGTGVPSIGMVSLGMGTLAAVAGVLIPDYFNLPYLVAPIITLIVSAVIGYIVGRLTVNPVGMKIPIMVRSMTFLSIAGAMALLGFTVAYVGSLEPQKYIDYALNNGMMALAFIAAGMAILHPFNACLGPNESHKRTLTLAVACGFITWFVFSVVKLDIVSIIVSIILWAIVYVKFVKMSFKDACAVLHVPEIPKKEE”, the protein production result was “failed”.
With “MSHRRDYGSDAVHVRITHDPPPENCFPNSGDSSVWATEDDYSRVWAINSDGAESPSKKTRSSSSSEIGKSFFKTKLCFKFRAGTCPYSASSCHFAHSAEELRLPPPPPPNWQETVTEASRNRESFAVSLGPRGNVAQTLKSPNWKTRICNKWQTTGYCPFGSHCHFAHGPSGKATAFFIY”, the protein production entry is on record as “failed”.
On to “MSHTEAATVHSTAPASHPVRIALIGAGRIGSNHAEIVARLVPGASLVAVSDPVGESAQRLATTLGASLATTTVDDVLTSDEVDAVLITAPARSHTDLVVAAAAAGKHVFVEKPMAVTLADADRAIAAAADAGIVLQVGFNRRFAPGFAAARAAIDAQKVGAPQLLRSLTRDPGPYTADPARVPQWTIFLETLIHDFDTLCFLNPDARPVRVHAVADALVRPDAKGAGHLDTAVVTVQFDNGAIATAEASFSALYGYDVRAEVFGSGGMITAGSGLSTDMTYYGPDGMHADTARRDTDLLHSAYLGELTAFVDAIRTHTPAVVTGQDARTALSIALAAIRSVETGSAVDLDG”, for which the protein production result is given as “failed”.
In the case of “MSHTLKSVAEDWFAIKKTTITEVTAKSLWRKFENHVFPKLGHRPIDKILAPEAIEALKPLAAKGNLETTGKIIGHLNNIMTHAVNTGILHHNPLSGIRSAFSAPKVTNLEHHHHHH”, the protein production entry was “not failed”.
Regarding “MSHWLILPILLPLFAGSLLLLPLAERWQRGLSLLAALALIPLSLLLIRTAASGDLSVYALGNWAAPFGIVLMLDRLAALMLLATAVLGSAALIYALRGEDRLGKHFHALFQFQLLGINGAFLTGDLFNLFVFFEILLIASYALLLHGGGAERVRSGLHYVILNLVGSAFFLIAVGTLYGLTGTLNMADMAQKIAMADAERAPLLAAAGLLLLVVFALKAALLPLYFWLPRAYATASAPVAALFAIMTKVGIYSILRVYTLVFGDAAGELANLAQAWLWPLALATLGLGAIGALAARTLQGLLAYLVVVSAGTLLAGVALGSERALAASLYYLLHSTWIAGGLFLLADLVARQRGDKAGDLVQGPALQNPRLLGGAFFIGAIAVAGLPPLSGFFGKVMLLQSVAPGSQALALWSVVLGSGLVALVALSRAGSTLFWRTGHTVLGSAELDHGRLFACILLLSAGPLLVFAAKPLLAYVQATAAQLHDLDLYRQIITRGGAA”, the protein production entry was “failed”.
Consider “MSHYNPEQLNFVNNHRNNVKEGYFYKNNLLKENNNKMESSKNCIMVPLINNPSHSENNFSKNNRDENINEEKSKYQFEYQNKIIQVPELKYVDKMVYDPVIIEKVKYVPKEVIKYNIIKKPVIKNIITEKKVDVLQVKEKISFKEEEIVEDVYNYVDKDLNTKWNESQYDNEMYKDLTKKKNYIGQNHLLPNNINKMGHINDRTYKHINNNITNLLEPFGPQIDVEENKIIENVFVPNVEKVIEVNKKIDIPINLPVPYIVPKPKIIDVDVPVFKFNDKYVPVPVSKKIIPKITWTDKIYQVDCLIEKPYLVYHNIIKMVPTDSKITVREYPKGIKKINPEELYEVDNLALWMRVNADLKQEHDQMKNEKYETNKKKGKGETEQLDDNISSDHTCECSESYETYEKLSNEEFNSSNEETTIKSSNENILDTLPLHPGHPLEFIHLQNKWINQDTTNIPDMYDQKYLDAHRNAVFNLTTQMPREAEVEAKQLLYIQKKLQQEETL”, for which the protein production result is recorded as “failed”.
With “MSIEAKFKKLGTDNAPGQEVRQSAAGLEALIRGAPIEGRPVDFSHGDVDAHEPTPGAFDLFSAGVQSGGVQAYTEYRGDLGIRDLLAPRLAAFTGAPVDARDGLIITPGTQGALFLAVAATVARGDKVAIVQPDYFANRKLVEFFEGEMVPVQLDYVSADETRAGLDLTGLEEAFKAGARVFLFSNPNNPAGVVYSAEEIGQIAALAARYGATVIADQLYSRLRYAGASYTHLRAEAAVDAENVVTIMGPSKTESLSGYRLGVAFGSRAIIARMEKLQAIVSLRAAGYSQAVLRGWFDEAPGWMEDRIARHQAIRDELLHVLRGCEGVFARTPQAGSYLFPRLPKLAVAPAEFVKILRLQAGVVVTPGTEFSPHTADSVRLNFSQDHEAAVAAARRIVTLVERYRA”, the protein production result is recorded as “not failed”.
On to “MSIESLWSSRFQQHIQNIITYFARMINGLLYSFIFISCVGAYYYAQFLKASPSKGISLIIITIVLTFIITRCPIRTFIQKPDAVYLLALEEKLTSYFKKSLLYNYIMQLFPLLFTFLILVPLAMQSLQLTVPFLCTIFIVLMITKAWNMYIHWMWRDSHEKNIWLIIRITCNALIIYMLFYSANVLILGGLLLLLAFLLLYTKKQPTKRIPWDYIIEQEEKMNVRFYQFASIFTDVPQLNKQVNKRKWLTNWIEPLLHKKRATFFYLHTLAFLRGNDYFGIYIRLRLIGAFALYFIPNIYVKGAIAYIVLYMISMQLRSLWKYFSGNIIVALYPIHTEERMKQFLHLIFILLSIQLIVFSSVILIATGQFLHILIIMIVGLLWIKFIIVPKTKQRISAF”, for which the protein production entry is listed as “failed”.
Turning to “MSIITRLFNNSDFEKLNQLCKLYDDLGYPTNENDLKKRLKKITNHDDYFLLLLIKENKIIGLSGMCKMMFYEKNAEYMRILAFVIHSEFRKKGYGKRLLADSEEFSKRLNCKAITLNSGNRNERLSAHKLYSDNGYVSNTSGFTKQL”, the protein production result is given as “not failed”.
“MSIKVGDVFKYERRFTEEEVFEFANITGDKGRHHMEYDENGRLMVHGLLTASIGTKVGEELHYIARELVSEFIRPVFAGDTITCELTLTNVEQMEGYKKVSIESVYRNQNEKTVLVGTSYGVIRG”: the protein production result was “failed”.
Take “MSILMPVRNEERFLPAALASLCRQSLTAWELIVVDDGSTDDTPELLRVAAARDRRVRVFNNAGAGLVDALNYGLAHCRAELVARMDGDDISHPQRLERQAAALDADPGLGLVATRFRHFPRHSVGLGMRAYEEWQNGLLTHEEIMRDRFVESPVVHPSVMARRQALTDAGGYRKTGWAEDYDLWLRLAAGGVRFTRLPEVLFFWRERPERATRTMGEYAADAFRACKIHHLCQGFLLGVDNVTLAGAGLEGRAWQRALAREGVRVGRWLDVDPRKQGRILHGAPVTAPDDVRAGAEKILVTVGTRGARDGVRAWARRAGLREGEDFVCVTLEHHHHHH”: the protein production entry was “failed”.
In the case of “MSINDVAKLFGSAWIVMMADVDAASILTGVADGQTYGYRLIILLLVLTLPLYIVQEAAGRVGAVNNGKGLGTLLREKFSQKFALTAAIPMFLVDLFTYVVEYVGIAVGSLMIGVPVYISLPLFFVIHLSIVLTRTYEKMEKTLLGISFFLVIAFIVQAFLRGVSPNQQLLYFSASKSFLFFLAANIGAVVMPFMIFYQASATAYKYNNSALSKDVKVKWSSMETFIGALVSELLMVAIEISTTGLSSSIDPLNYREMSYALSAISGIYSPYVFGIGLICGGLLALIVESLGSAWGTLEALNKHNHRNTTLLYVFESVPAIIIASIFSQNYDQIVNTVLSLMSVTPIIVFIPAFFVGLLVGDEKIMGKYSYSRRRMVIYWITVVILLISGIMSLL”, the protein production result is listed as “failed”.
Turning to “MSINPYVTIFLLLAATSSQALSISLADPCTVSDFPALCRSTIKGQTNVNAATDVAIKELMKRTRQAKKIAEKELKRDGGVATCLSNFNSAFDNLEKALTNIKENDGFSLNINLSAALTDYDTCSDSMKETKEVNVIYKSAGVLYRMADNCLALSTLVKH”, the protein production result is reported as “failed”.
In the case of “MSIPNGGSHQSLEALLAAYDFRLRHEPRNCTLWNNRGILLERLNRWTEALASYNCALEITPQRQEALNNRAIVLEHLGRLPEAVESYEQALAIDRQQPEVWNNRGIVLRKLGRLEDAIASYQQAIALAAHYAQAWANCGFALWQQGRYREAVRHYEQSVAIDPDQSSAWRQLGQIYLSVDQPDQALRCLDQAIALQPQQATAWTWRGHALYNLGQYAAALTSYENAELLGDRPLLLSIQRGHTLAQLERYEEALASYAAILPQLTGEAAAEVAYYQGLVWAYLQDWTAALAAFDQAIAGNPDLAEAWYNRAALHARLDQPVAAIADLQQAIALDPDTYRSLAAEDPDYQTLHAHPDWIQLQRA”, the protein production entry is listed as “failed”.
Regarding “MSIPSFLKLVEIQTKIASVFPFMLGTLFVVYQYDMFKPINTLIIFGSMLIFDLTTTAINNYMDYRKATDNHDYDYRTTSNVIGQEQIPVRTVIITIFLMFFIATGLGVWLVFRTDLLVLLIGFVCFCIGILYTFGPVPLSRMPLGEIFSGVTMGFGIFFLAVYVNAYDAGIANLLWQGEMVTIQFNLIEIIRIGVVSLPCIFTIANIMLANNLCDLDEDIRNHRYTLPYYIGRKMGVLLFNTLYYASFLAVVVSVAINFLHPIMLLSLITIYPVYRNLVKFNKEQVKSKTFVIGIRNFVLINATLTILMAVSVVLQQLT”, the protein production result was “failed”.
The result for “MSIREVIMDYLENSSKKALSVEELSVALHMNKAKDYKVFVKTLASLEAEHLLNFTAKGKVELAEKEEAKVVISGIFRANAAGFGFVSIDAEEPDVFVARGQTAFALDGDEVFIEIDKNANALKGTSAEGHVVEIIRHDVHQVVGTFVALNDDEKEQTGLIGFVKSRNKKIPYRVYLENEGLIPENKAIVRVEITHYPDKEFPQTMQGLVTEIIGQADDQGIDVLEVLASMDIVSEFPKEVLDQAEAVPEEVPENEIVGRVDYRNEITFTIDGADAKDLDDAVHAKRLENGNYELGVHIADVSHYVTENSPLDKEAYERGTSVYVTDRVVPMLPERLSNGICSLNPRINRLTQSCVMEISPEGRVINYQISQSIIKTTERMTYDAVNQMIAGDEAALENYAKIADSVKIMVELHHILEAMRKRRGAIDFDTVEAKIIVNEKGLPIEIRKRTRGIAERMIESFMLEANETVATHFEAHGLPFIYRIHEQPKADRLQRFIDFAATFGMQIEGTSNGIDQKVLQAFMKKIKGQPGEMVLSTMLLRSMQQARYSENNEGHFGLAAENYTHFTSPIRRYPDLLVHRLIREIGEGKTPANILQKWEDKIPEIAEHSSHRERRAVDAEREVEKMKKAEFMEEHVGEEYEGIIASVTRFGMFIELENTIEGLVHISTLKGDYFNYQERMLALIGERSGLTFKIGQPIKIKVVKADRMTGEIDFEYLPSELDLIDKAAKAKKKPDHKGRKKSNQSLKVKSVAPKSTDKSANKSKNGRRADEKFEFDKKKKKSAKKPFYSKAAKGKFTDKKDNGKKFTDGRKKPHKRG” reads “failed”.
The result for “MSIRLKTALLSGILLAILVSGLGGVLWTVVRPGFQDIERARAADHMTALLAAISADIDSIGTFILSYSSWDETYAFVRTGDPTYVANNLAVEGAKNAQSHFALVLTPKGRTVFSRLWNDDFTATLPPPDAAGGGLPANHPLMAALSHPEGVRGLLQTPRGPLAVAARPILPSNEHGPPRGVLVFGRWLTHALSDHPPLPHLSPLRLWLAPAPGDAPENVRRLLAADGPDLEIDGIGEPTSLVTAGIRLVDLEGAPVAALTTTLAKTVEPQGESIIRLALVIAALGSLGVVAVGLVSNHLMIVAPLRRLESHITTLSRTGDLDTRLVLDRKDEIGLLARAFATMQGRIRHLAHYDPLTGLPNRTLFTMLGEGALARRRADRNGGGRRVGVAILDLDRLNTLTIGLGQGGSERALVAVGRRLAALAGPADVVARGGDGRFLVLLGDLAPAQAGSIVEREAAERLASAFAKPFTPDDLVGAPLSLTASIGLALFPQDGETLETLVTHAEVAVHQAKLLGRNNFQFFDDTLNRQAREILALESALYEALADNTLSLCFQPRIDAVRGHAIELKALARWDHPSRDLIVLEDVLPLIKQDGLLAEIDRWMSNAACRQIRQWRDQGVSFPPIAIALSARPLTAGDPGLAPIAEAIAANGVDPGDLAVEIAQSAIKGQFPETKAPETQAPEDRPAEELPWPDGLAGLGLGLVIDVADAGVVSPALLRRFPLTRLTIGAALVAKLPDCRESRALVRALIALADELDLECLAEGVERGDQADWLLAAGCRLQQGLFHARPQDQTVILRWLGQTPPRGLSSPGPRDRKQDGV” reads “failed”.
